Measurements published in patent US20050059087A1 (Amgen, published 2005).
Residue numbers refer to the chain shown, from its start. Names may count otherwise. No end group written: not given here.

T1: EGFRvIII peptide-OVA (PEP3 14-mer conjugated to ovalbumin) (human, also: conjugated to OVA, chemistry not given here)
T1 construct: also called VIII-pep-OVA; muEGFr
T1 peptide: LEEKKGNYVVTDHC

T2: Pep-3, NH2-LEEKKGNYVVTDHG-OH (human)
T2 construct: Free peptide used in Biacore and KinExA (MW 1590 Da)
T2 peptide: H-LEEKKGNYVVTDHG-OH

B1: AB-EGFRvIII-XG1-095 (antibody, V domains shown)
VH: QVQLQESGPFLVKPSQTLSLTCTVSGGSISSGGYYWSWIRQHPGKGLEWIGFIYYRGNTYYNPSLKSRVTISVDTSKNQFSLKLSSVTAADTAVYYCARDGYCSRTGCYGGWFDPWGQGTLVTVSP
VL: DIVMTQTPLSSPVTLGQPASISCRSSQSLIHTDGNIYLSWLQQRPGQPPRLLIYKISNRFSGVPDRFSGSGAGTDFTLKISRVEAEDVGVYYCMQGTQFPITFGQGTRLEIK
notes: also called SC95; sc95
B2: SC-EGFRvIII-XG1-250 (antibody, V domains shown)
VH: EGQLLESGGGWVQPGESLRLSCAASGFTFSSYAMSWVRQAPGKGLEWVSAISGSGGSTNYADSVKGRFTISRDNSKNTLYLQVNSLRVEDTAVYYCAGSSGWSEYWGQGTLVTVSS
VL: DIQMTQSPSSLSASVGDSVTITCRTSQGIRKNLGWYQQKPGKAPKRLIYAASSLQSGVPSRFSGSGSGTEFTLTISRLQPEDFATYYCLQHHSYPLTFGGGTRVEIR
notes: also called SC250; sc250
B3: SC-EGFRvIII-XG2-150 (antibody, human IgG1, V domains shown)
VH: QVQLQQSGPGLVKPSQTLSLTCAISGDSVSSYSSAWNWIRQSPSRGLEWLGRAYHRSRWYYEYAVSVKSRINITPDTSKNQFSLQLNSVTPEDTAVYYCARGSRFDYWGQGTLVTVSS
VL: B1 VL with I30V, T32R, I36T, V90I, Y92F, Q95H, G96T, I101W, L109V
notes: XenoMax-derived from an XMG2 mouse; also called sc150; 182D5
B4: SC-EGFRvIII-XG1-211 (antibody, V domains shown)
VH: QVQLVESGGGVVQPGRSLRLSCVASGFTLSSYGMHWVRQAPGKGLEWVAVTSYDGSKKDYADSAKGRFTISRDNSKNTLYLQMNSLRAEDTAVYYCVSEGYCSSSSCYKYYYYGMDVWGQGTTVTVSS
VL: DIVMTQSPLSLPVTPGEPASISCRSSQSLLYRNGNNYLDWYLQRPGQSPQLLIYLGSNRASGVPDRFSGSGSGTDFTLKISRVEAEDVGVYYCMQALQTPRTFGQGTKVEIK
notes: also called SC211; sc211
B5: SC-EGFRvIII-XG2-170 (antibody, human IgG1, V domains shown)
VH: QVQLQQSGPGLVKPSQTLSLTCAISGDSVSSNNAAWNWIRQSPARGLEWLGRTYYRSKWYNDYVVSVKSRITINPDTSKNQFSLQLNSVTPEDTAVYYCVRATAFDYWGQGTLVTVSS
VL: AIVLTQTPLSSPVTLGQPASISCRSSQSLVHRDGNTYLSWLQQRPGQPPRLLIYKISNRFSGVPDRFSGSGAGTDFTLKISRVEPDDVGVYYCMHTTQLPWTFGQGTKVEIK
notes: XenoMax-derived from an XMG2 mouse; also called SC170; sc170
B6: 13.1.2 variant Arg101Asp (antibody, V domains shown)
VH: QVQLVESGGGVVQPGRSLRLSCAASGFTFSSYGMHWVRQAPGKGLEWVAVIWYDGSNKYYVDSVKGRFTISRDNSKNTLYLQMNSLRAEDTAVYYCARDGWQQLAPFDYWGQGTLVTVSS
VL: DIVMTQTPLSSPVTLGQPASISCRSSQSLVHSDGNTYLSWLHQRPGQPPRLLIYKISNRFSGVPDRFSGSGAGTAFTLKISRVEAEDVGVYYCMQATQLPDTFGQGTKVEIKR
notes: Mutated chain co-transfected with the complementary wild-type chain in 293 cells; supernatant tested
B7: 13.1.2 variant Arg101Glu (antibody, V domains shown)
VH: B6 VH
VL: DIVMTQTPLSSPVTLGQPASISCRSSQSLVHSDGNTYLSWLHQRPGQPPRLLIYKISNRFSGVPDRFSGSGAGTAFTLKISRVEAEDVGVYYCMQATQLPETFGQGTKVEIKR
notes: as for B6
B8: 13.1.2 variant Arg101Gln (antibody, V domains shown)
VH: B6 VH
VL: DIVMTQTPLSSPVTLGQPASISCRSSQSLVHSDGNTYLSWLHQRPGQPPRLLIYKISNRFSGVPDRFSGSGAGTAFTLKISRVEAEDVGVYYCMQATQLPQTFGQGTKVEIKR
notes: as for B6
B9: 13.1.2 variant L217N-2.1 (antibody, V domains shown)
VH: B6 VH with L104N
VL: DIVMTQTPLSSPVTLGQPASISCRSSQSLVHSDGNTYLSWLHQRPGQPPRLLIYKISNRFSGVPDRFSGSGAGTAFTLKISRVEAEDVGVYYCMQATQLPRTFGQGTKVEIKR
notes: also called Leu217Asn; 217Asn
B10: 13.1.2 variant L99H-9.2 (antibody, V domains shown)
VH: B6 VH
VL: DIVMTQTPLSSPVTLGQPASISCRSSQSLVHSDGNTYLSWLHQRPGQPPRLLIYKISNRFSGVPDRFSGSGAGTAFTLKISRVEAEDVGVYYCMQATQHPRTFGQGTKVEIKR
notes: also called Leu99His; 99His
B11: 13.1.2 variant Y172R-1.2 (antibody, V domains shown)
VH: B6 VH with Y59R
VL: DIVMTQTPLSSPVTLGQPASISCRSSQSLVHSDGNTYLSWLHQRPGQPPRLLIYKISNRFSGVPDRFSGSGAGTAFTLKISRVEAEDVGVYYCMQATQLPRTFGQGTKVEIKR
notes: also called Tyr172Arg; 172Arg
B12: 13.1.2 variant L217Q-10.1 (antibody, V domains shown)
VH: B6 VH with L104Q
VL: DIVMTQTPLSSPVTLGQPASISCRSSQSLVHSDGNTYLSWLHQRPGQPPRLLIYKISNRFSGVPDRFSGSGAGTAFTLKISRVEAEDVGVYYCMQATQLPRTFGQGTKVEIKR
notes: also called Leu217Gln; 217Gln
B13: 13.1.2 variant N35G-3.1 (antibody, V domains shown)
VH: B6 VH
VL: DIVMTQTPLSSPVTLGQPASISCRSSQSLVHSDGGTYLSWLHQRPGQPPRLLIYKISNRFSGVPDRFSGSGAGTAFTLKISRVEAEDVGVYYCMQATQLPRTFGQGTKVEIKR
notes: also called Asn35Gly; 35Gly
B14: SC-EGFRvIII-XG1-318 (antibody, human IgG1, V domains shown)
VH: B4 VH with A64V, S103D
VL: B4 VL
notes: XenoMax-derived; also called 141A10
B15: SC-EGFRvIII-XG1-342 (antibody, human IgG1, V domains shown)
VH: B4 VH with A64V, S103D, S105T
VL: B4 VL
notes: XenoMax-derived; also called 124D4
B16: SC-EGFRvIII-XG1-123/124 (antibody, human IgG1, V domains shown)
VH: B4 VH with V23A, T51M, K58E, A64V, K76E, S105R
VL: B4 VL with R44K, K79N, V90H
notes: also called 129A7
B17: SC-EGFRvIII-XG1-333 (antibody, human IgG1, V domains shown)
VH: B4 VH with P41L, A64V, S103D, S105T
VL: B4 VL
notes: XenoMax-derived

Target: T1, EGFRvIII peptide-OVA (PEP3 14-mer …)
Assay: XenoMax screening

Binder	binding result
B1	binds
B2	binds

Each binder was assayed against T3, EGFRvIII, full length, expressed by transfected cells (NR6 M, H1477, 300.19/EGFRvIII) (human, UniProt P00533 298-1210) (assay: cell-based or functional assay).

Binder	% internalization [%]	FACS Geometric mean, With glutathione 4° C. [geometric mean]	FACS Geometric mean, With glutathione 37° C. [geometric mean]
B1	72.4	5.13	17.8
B3	20	4.66	7.78
B4	21.6	4.78	8.23
B5	20.1	4.67	7.75
B2	16.7	4.84	8.07

What follows are binders tested against EGFrVIII antigen (ELISA antigen of Examples 15, 17 and 21; form not stated) (human, UniProt P00533 298-645, limits assumed) (assay: ELISA, 293 cell supernatant on EGFrVIII antigen).
Method: Each mutated chain was then transfected with the complementary wild-type chain in 293 cells. Supernatants were then tested for expression and secretion of human IgG antibodies, and for binding to EGFrVIII antigen.

Binder	binding result
B6	no binding
B7	no binding
B8	no binding

Target: T2, Pep-3, NH2-LEEKKGNYVVTDHG-OH
Assay: Biacore 2000 SPR, mAb immobilised, pep-3 analyte
From the text: The first step in these examples involved the immobilization of 5,600 resonance units (RU) to 8,000 RU of each mAb tested to one flow cell (Fc) of a CM5 sensor chip using standard EDC/NHS coupling chemistry. […] Three CM5 sensor chips were used in total to immobilize all mutant mAbs with a unique mAb immobilized to each flow cell. […] Biacore 2000 optical biosensors were used for all studies.

Binder	Kd [nM]	koff [s⁻¹]	kon [M⁻¹ s⁻¹]
B9	185	0.04	220000
B10	395	0.033	83400
B11	927	0.076	82200
B12	92	0.019	204000
B13	204	0.03	150000

Target: T2, Pep-3, NH2-LEEKKGNYVVTDHG-OH
Assay: Biacore 2000 SPR, mAb immobilised, pep-3 analyte, 23 C
Method: Standard EDC/NHS and carbohydrate coupling was used to covalently immobilize mAbs to a CM5 sensor chip. To minimize mass transport and crowding mAbs were immobilized at levels that gave a maximum antigen binding response (Rₘₐₓ) of no more than 50-100 RU. A reference flow cell on each chip was activated and blocked with no mAb immobilization to serve as a control.
All Biacore kinetic experiments were conducted at 23° C. […] Antigen samples were randomly injected over the biosensor surface in triplicate at 100 μL/min. Several buffer blanks were injected intermittently over the course of an experiment for double referencing. Each pep-3 concentration and blank were injected for 90 seconds. Dissociation was followed for 13 to 180 minutes.
All Biacore sensorgrams were processed using Scrubber software (Version 1.1f, BioLogic Software, Australia). Sensorgrams were first zeroed on the y-axis and then x-aligned at the beginning of the injection. Bulk refractive index changes were removed by subtracting the reference flow cell responses. The average response of all blank injections was subtracted from all analyte and blank sensorgrams to remove systematic artifacts between the experimental and reference flow cells. CLAMP biosensor data analysis software (Version 3.40, BioLogic Software, Australia) was used to determine kₐ and kd from the processed data sets. Data from all flow cells were globally fit to a 1:1 bimolecular binding model that included a mass transport term. […] The KD was calculated from the quotient kd/kₐ.

Binder	Kd [nM]	koff [s⁻¹]	kon [M⁻¹ s⁻¹]
B1	66	0.0099	149000

Each binder was assayed against T4, EGFRvIII-rabbit Fc fusion protein (human; rabbit, UniProt P00533 298-645) (assay: ELISA, minilipofection supernatant titrated 1:2 on EGFRvIII-Rab Ig Fc fusion protein (1.5 ug/ml)).
T4 construct: made in 293F cells; also called EGFRvIII-RbFc; EGFRvIII-Rab Ig Fc fusion protein; not shown: rabbit IgG Hinge-CH2-CH3 (721 bp fragment)
Method: The secretion ELISA tests were performed as follows. […] The plates were washed five times with dH₂O. Recombinant antibodies were titrated 1:2 for 7 wells from the undiluted minilipofection supernatant. The plates were washed five times with dH₂O. A goat anti-human IgG Fc-specific HRP-conjugated antibody was added at a final concentration of 1 μg/mL for 1 hour at RT for the secretion plates and binding plates detected with 1 μg/ml Rb anti Hu Fc for 1 hour at room temperature. The plates were washed five times with dH₂O. The plates were developed with the addition of TMB for 30 minutes and the ELISA was stopped by the addition of 1 M phosphoric acid. Each ELISA plate was analyzed to determine the optical density of each well at 450 nm.

Binder	Titer, antigen binding [reciprocal dilution]
B3	> 64
B14	64
B4	> 64
B15	> 64
B16	> 64
B17	> 64
B5	> 64
B2	> 64

The binders below were run against T3, EGFRvIII, full length, expressed by … (assay: FACS on NR6 M cells, antibody at 0.25 µg/ml with SS Alexa anti-human IgG Fab, 37° C. for 1 hr, no glutathione (total cell-associated fluorescence)).
Method: XenoMax derived IgG1 recombinant antibodies were expressed, purified and quantitated as described previously. Antibodies were further assayed for their ability to internalize the EGFRvIII receptor in NR6 M cells. […] The cells were washed with cold 10% FCS in PBS and secondary antibody (SS Alexa antihuman IgG Fab) at 3 μg/ml Fab was added and incubated for 7 mins on ice. The cells were washed with cold 10% FCS in PBS once and then resuspended in cold media. Next, two sets of the triplicate were incubated at 37° C. and the remaining set was incubated at 4° C. for 1 hr. After that the cells incubated at 4° C. and one set of the cells incubated at 37° C. were treated with glutathione (as previously mentioned) for 1 hr on ice. Then the cells were washed and resuspended in 100 μl of cold 1% FCS in PBS and analyzed by FACS. The % internalization was calculated from the geometric mean obtained from the FACS analysis [(mean at 37° C. with glutathione—mean at 4° C. with glutathione)/(mean at 37° C. without glutathione—mean at 4 C with glutathione)].

Binder	FACS Geometric mean (without glutathione, 37° C.) [geometric mean]
B1	22.6
B3	20.3
B4	20.8
B5	20
B2	24.1
